Among the data in ChEMBL document CHEMBL2074064, “Uptake of cyclic dipeptide by PEPT1 in Caco-2 cells: phenolic hydroxyl group of substrate enhances affinity for PEPT1” (J Pharm Pharmacol, 2002) are Km values, retold here.

The Km is the concentration of substrate that gives half-maximal velocity.

Holding throughout (type): functional, cell-based
Substrate in data set [1]: O=C1N[C@@H](Cc2ccc(O)cc2)C(=O)N[C@H]1CO
Nature of the data set: (§1) TP_TRANSPORTER: uptake in Caco-2 cells.

Substrate in data set [2]: O=C1N[C@@H](Cc2ccccc2)C(=O)N[C@H]1CO
Described as §1.

Substrate in data set [3]: O=C1CNC(=O)[C@H](Cc2ccccc2)N1
The description is as §1.

Substrate in data set [4]: O=C1CNC(=O)[C@H](Cc2ccc(O)cc2)N1
Described as §1.

B1: Solute carrier family 15 member 1 (Homo sapiens), P46059 (protein)
chain: MGMSKSHSFFGYPLSIFFIVVNEFCERFSYYGMRAILILYFTNFISWDDNLSTAIYHTFVALCYLTPILGALIADSWLGKFKTIVSLSIVYTIGQAVTSVSSINDLTDHNHDGTPDSLPVHVVLSLIGLALIALGTGGIKPCVSAFGGDQFEEGQEKQRNRFFSIFYLAINAGSLLSTIITPMLRVQQCGIHSKQACYPLAFGVPAALMAVALIVFVLGSGMYKKFKPQGNIMGKVAKCIGFAIKNRFRHRSKAFPKREHWLDWAKEKYDERLISQIKMVTRVMFLYIPLPMFWALFDQQGSRWTLQATTMSGKIGALEIQPDQMQTVNAILIVIMVPIFDAVLYPLIAKCGFNFTSLKKMAVGMVLASMAFVVAAIVQVEIDKTLPVFPKGNEVQIKVLNIGNNTMNISLPGEMVTLGPMSQTNAFMTFDVNKLTRINISSPGSPVTAVTDDFKQGQRHTLLVWAPNHYQVVKDGLNQKPEKGENGIRFVNTFNELITITMSGKVYANISSYNASTYQFFPSGIKGFTISSTEIPPQCQPNFNTFYLEFGSAYTYIVQRKNDSCPEVKVFEDISANTVNMALQIPQYFLLTCGEVVFSVTGLEFSYSQAPSNMKSVLQAGWLLTVAVGNIIVLIVAGAGQFSKQWAEYILFAALLLVVCVIFAIMARFYTYINPAEIEAQFDEDEKKNRLEKSNPYFMSGANSQKQM
In the case of B1, the Michaelis-Menten constant (Km) worked out at 21.9 µM in data set [1], 118 µM in data set [2], 90.9 µM in data set [3] and 62.9 µM in data set [4].
